Assay results as given in patent publication US20250352667A1.

Assays:
[1] = molecular target: KEAP1 (wild-type full-length), His-tagged (human) (UniProt Q14145); assay: AlphaScreen; 9.6 nM FLAG-NRF2, 150 nM His-KEAP1; Rep 1; control for I86V
[2] = molecular target: KEAP1 (wild-type full-length), His-tagged (human) (UniProt Q14145); assay: AlphaScreen; 614.4 nM FLAG-NRF2, 150 nM His-KEAP1; signal against NRF2 only; control for I28V
[3] = molecular target: KEAP1 (wild-type full-length), His-tagged (human) (UniProt Q14145); assay: AlphaScreen; 153.6 nM FLAG-NRF2, 150 nM His-KEAP1; signal against NRF2 only; control for I86V
[4] = molecular target: KEAP1 (wild-type full-length), His-tagged (human) (UniProt Q14145); assay: AlphaScreen; 19.2 nM FLAG-NRF2, 150 nM His-KEAP1; Rep 1; control for I86V
[5] = molecular target: KEAP1 (wild-type full-length), His-tagged (human) (UniProt Q14145); assay: AlphaScreen; 9.6 nM FLAG-NRF2, 150 nM His-KEAP1 (same value as in Table 26)
[6] = molecular target: KEAP1 (wild-type full-length), His-tagged (human) (UniProt Q14145); assay: AlphaScreen; 614.4 nM FLAG-NRF2, 150 nM His-KEAP1; Rep 2; control for I86V
[7] = molecular target: KEAP1 (wild-type full-length), His-tagged (human) (UniProt Q14145); assay: AlphaScreen; 76.8 nM FLAG-NRF2, 150 nM His-KEAP1; Rep 3; control for I86V
[8] = molecular target: KEAP1 (wild-type full-length), His-tagged (human) (UniProt Q14145); assay: AlphaScreen; 307.2 nM FLAG-NRF2, 150 nM His-KEAP1; Rep 2; control for I28V
[9] = molecular target: KEAP1 (wild-type full-length), His-tagged (human) (UniProt Q14145); assay: AlphaScreen; NRF2 wt isoform 1 38.4 nM, KEAP1 150 nM; signal against NRF2-only control; control for I86V
[10] = molecular target: KEAP1 (wild-type full-length), His-tagged (human) (UniProt Q14145); assay: AlphaScreen; NRF2 wt isoform 1 38.4 nM, KEAP1 150 nM; set as the 100 % reference for I86V
[11] = molecular target: KEAP1 (wild-type full-length), His-tagged (human) (UniProt Q14145); assay: AlphaScreen; 2.4 nM FLAG-NRF2, 150 nM His-KEAP1; Rep 1; control for I28V
[12] = molecular target: KEAP1 (wild-type full-length), His-tagged (human) (UniProt Q14145); assay: AlphaScreen; NRF2 wt isoform 1 9.6 nM, KEAP1 150 nM; signal against NRF2-only control; control for Q75R
[13] = molecular target: KEAP1 (wild-type full-length), His-tagged (human) (UniProt Q14145); assay: AlphaScreen; mean over 9.6, 19.2 and 38.4 nM NRF2 wt isoform 1, KEAP1 150 nM; reference for I86V
[14] = molecular target: KEAP1 (wild-type full-length), His-tagged (human) (UniProt Q14145); assay: AlphaScreen; 19.2 nM FLAG-NRF2, 150 nM His-KEAP1 (same value as in Table 26)
[15] = molecular target: KEAP1 (wild-type full-length), His-tagged (human) (UniProt Q14145); assay: AlphaScreen; FLAG-NRF2 wt isoform 1 19.2 nM, His-KEAP1 150 nM; Repeat 2; positive control for Q75R
[16] = molecular target: KEAP1 (wild-type full-length), His-tagged (human) (UniProt Q14145); assay: AlphaScreen; FLAG-NRF2 I86V 153.6 nM, His-KEAP1 150 nM; Rep 3
[17] = molecular target: KEAP1 (wild-type full-length), His-tagged (human) (UniProt Q14145); assay: AlphaScreen; FLAG-NRF2 I86V 9.6 nM, His-KEAP1 150 nM; Rep 3
[18] = molecular target: KEAP1 (wild-type full-length), His-tagged (human) (UniProt Q14145); assay: AlphaScreen; FLAG-NRF2 I86V 2.4 nM, His-KEAP1 150 nM; Rep 3
[19] = molecular target: KEAP1 (wild-type full-length), His-tagged (human) (UniProt Q14145); assay: AlphaScreen; FLAG-NRF2 I86V 307.2 nM, His-KEAP1 150 nM; Rep 3
[20] = molecular target: KEAP1 (wild-type full-length), His-tagged (human) (UniProt Q14145); assay: AlphaScreen; FLAG-NRF2 I86V 76.8 nM, His-KEAP1 150 nM; Rep 2
[21] = molecular target: KEAP1 (wild-type full-length), His-tagged (human) (UniProt Q14145); assay: AlphaScreen; FLAG-NRF2 Q75R 4.8 nM, His-KEAP1 150 nM; Rep 1
[22] = molecular target: KEAP1 (wild-type full-length), His-tagged (human) (UniProt Q14145); assay: AlphaScreen; NRF2 Q75R 1228.8 nM, KEAP1 150 nM; signal against NRF2-only control
[23] = molecular target: KEAP1 (wild-type full-length), His-tagged (human) (UniProt Q14145); assay: AlphaScreen; 153.6 nM FLAG-NRF2, 150 nM His-KEAP1; Rep 2
[24] = molecular target: KEAP1 (wild-type full-length), His-tagged (human) (UniProt Q14145); assay: AlphaScreen; 19.2 nM FLAG-NRF2, 150 nM His-KEAP1; signal against NRF2 only
[25] = molecular target: KEAP1 (wild-type full-length), His-tagged (human) (UniProt Q14145); assay: AlphaScreen; 4.8 nM FLAG-NRF2, 150 nM His-KEAP1; Rep 1
[26] = molecular target: KEAP1 (wild-type full-length), His-tagged (human) (UniProt Q14145); assay: AlphaScreen; 76.8 nM FLAG-NRF2, 150 nM His-KEAP1; signal against NRF2 only
[27] = molecular target: KEAP1 (wild-type full-length), His-tagged (human) (UniProt Q14145); assay: AlphaScreen; 2.4 nM FLAG-NRF2, 150 nM His-KEAP1; Rep 2

Chain of KEAP1 (wild-type full-length), His-tagged (human) (Q14145 2-624 limits assumed): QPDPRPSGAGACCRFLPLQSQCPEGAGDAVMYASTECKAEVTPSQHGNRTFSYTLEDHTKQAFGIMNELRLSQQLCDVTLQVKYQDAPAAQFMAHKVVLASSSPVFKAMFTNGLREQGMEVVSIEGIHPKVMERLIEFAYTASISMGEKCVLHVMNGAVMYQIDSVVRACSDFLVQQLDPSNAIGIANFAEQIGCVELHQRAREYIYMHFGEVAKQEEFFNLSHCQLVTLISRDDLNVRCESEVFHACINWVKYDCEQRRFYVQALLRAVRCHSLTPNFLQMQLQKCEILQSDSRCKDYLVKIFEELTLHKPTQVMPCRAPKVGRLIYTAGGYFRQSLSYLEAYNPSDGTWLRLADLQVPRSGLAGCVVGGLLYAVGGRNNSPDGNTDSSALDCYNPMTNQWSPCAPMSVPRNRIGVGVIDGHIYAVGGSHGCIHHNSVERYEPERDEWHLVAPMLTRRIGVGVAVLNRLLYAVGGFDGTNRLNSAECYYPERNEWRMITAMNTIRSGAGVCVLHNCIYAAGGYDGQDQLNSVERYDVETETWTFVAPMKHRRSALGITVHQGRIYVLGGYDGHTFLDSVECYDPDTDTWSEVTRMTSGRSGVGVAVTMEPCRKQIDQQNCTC

B1: NRF2 isoform 1 (wild-type full-length), FLAG-tagged (protein)
chain: MMDLELPPPGLPSQQDMDLIDILWRQDIDLGVSREVFDFSQRRKEYELEKQKKLEKERQEQLQKEQEKAFFAQLQLDEETGEFLPIQPAQHIQSETSGSANYSQVAHIPKSDALYFDDCMQLLAQTFPFVDDNEVSSATFQSLVPDIPGHIESPVFIATNQAQSPETSVAQVAPVDLDGMQQDIEQVWEELLSIPELQCLNIENDKLVETTMVPSPEAKLTEVDNYHFYSSIPSMEKEVGNCSPHFLNAFEDSFSSILSTEDPNQLTVNSLNSDATVNTDFGDEFYSAFIAEPSISNSMPSPATLSHSLSELLNGPIDVSDLSLCKAFNQNHPESTAEFNDSDSGISLNTSPSVASPEHSVESSSYGDTLLGLSDSEVEELDSAPGSVKQNGPKTPVHSSGDMVQPLSPSQGQSTHVHDAQCENTPEKELPVSPGHRKTPFTKDKHSSRLEAHLTRDELRAKALHIPFPVEKIINLPVVDFNEMMSKEQFNEAQLALIRDIRRRGKNKVAAQNCRKRKLENIVELEQDLDHLKDEKEKLLKEKGENDKSLHLLKKQLSTLYLEVFSMLRDEDGKPYSPSEYSLQQTRDGNVFLVPKSKKPDVKKN
A-counts [1]: 2640 A-counts
S/N [2]: 1
S/N [3]: 2
A-counts [4]: 3300 A-counts
S/N [5]: 4.1
A-counts [6]: 2520 A-counts
A-counts [7]: 2880 A-counts
A-counts [8]: 1780 A-counts
S/N [9]: 3
Binding Percentage [10]: 100%
A-counts [11]: 622 A-counts
S/N [12]: 3
Average Binding [13]: 100%
S/N [14]: 4.2
A-counts (NRF2 plus KEAP1) [15]: 1480 A-counts

B2: NRF2 isoform 1 (I86V full-length), FLAG-tagged (protein)
chain: MMDLELPPPGLPSQQDMDLIDILWRQDIDLGVSREVFDFSQRRKEYELEKQKKLEKERQEQLQKEQEKAFFAQLQLDEETGEFLPVQPAQHIQSETSGSANYSQVAHIPKSDALYFDDCMQLLAQTFPFVDDNEVSSATFQSLVPDIPGHIESPVFIATNQAQSPETSVAQVAPVDLDGMQQDIEQVWEELLSIPELQCLNIENDKLVETTMVPSPEAKLTEVDNYHFYSSIPSMEKEVGNCSPHFLNAFEDSFSSILSTEDPNQLTVNSLNSDATVNTDFGDEFYSAFIAEPSISNSMPSPATLSHSLSELLNGPIDVSDLSLCKAFNQNHPESTAEFNDSDSGISLNTSPSVASPEHSVESSSYGDTLLGLSDSEVEELDSAPGSVKQNGPKTPVHSSGDMVQPLSPSQGQSTHVHDAQCENTPEKELPVSPGHRKTPFTKDKHSSRLEAHLTRDELRAKALHIPFPVEKIINLPVVDFNEMMSKEQFNEAQLALIRDIRRRGKNKVAAQNCRKRKLENIVELEQDLDHLKDEKEKLLKEKGENDKSLHLLKKQLSTLYLEVFSMLRDEDGKPYSPSEYSLQQTRDGNVFLVPKSKKPDVKKN
A-counts (NRF2 plus KEAP1) [16]: 2500 A-counts
A-counts (NRF2 plus KEAP1) [17]: 2860 A-counts
A-counts (NRF2 plus KEAP1) [18]: 1680 A-counts
A-counts (NRF2 plus KEAP1) [19]: 2140 A-counts
A-counts (NRF2 plus KEAP1) [20]: 2800 A-counts

B3: NRF2 isoform 1 (Q75R full-length), FLAG-tagged (protein)
chain: MMDLELPPPGLPSQQDMDLIDILWRQDIDLGVSREVFDFSQRRKEYELEKQKKLEKERQEQLQKEQEKAFFAQLRLDEETGEFLPIQPAQHIQSETSGSANYSQVAHIPKSDALYFDDCMQLLAQTFPFVDDNEVSSATFQSLVPDIPGHIESPVFIATNQAQSPETSVAQVAPVDLDGMQQDIEQVWEELLSIPELQCLNIENDKLVETTMVPSPEAKLTEVDNYHFYSSIPSMEKEVGNCSPHFLNAFEDSFSSILSTEDPNQLTVNSLNSDATVNTDFGDEFYSAFIAEPSISNSMPSPATLSHSLSELLNGPIDVSDLSLCKAFNQNHPESTAEFNDSDSGISLNTSPSVASPEHSVESSSYGDTLLGLSDSEVEELDSAPGSVKQNGPKTPVHSSGDMVQPLSPSQGQSTHVHDAQCENTPEKELPVSPGHRKTPFTKDKHSSRLEAHLTRDELRAKALHIPFPVEKIINLPVVDFNEMMSKEQFNEAQLALIRDIRRRGKNKVAAQNCRKRKLENIVELEQDLDHLKDEKEKLLKEKGENDKSLHLLKKQLSTLYLEVFSMLRDEDGKPYSPSEYSLQQTRDGNVFLVPKSKKPDVKKN
A-counts (NRF2 plus KEAP1) [21]: 826 A-counts
S/N [22]: 0.9

B4: NRF2 isoform 1 (I28V full-length), FLAG-tagged (protein)
chain: MMDLELPPPGLPSQQDMDLIDILWRQDVDLGVSREVFDFSQRRKEYELEKQKKLEKERQEQLQKEQEKAFFAQLQLDEETGEFLPIQPAQHIQSETSGSANYSQVAHIPKSDALYFDDCMQLLAQTFPFVDDNEVSSATFQSLVPDIPGHIESPVFIATNQAQSPETSVAQVAPVDLDGMQQDIEQVWEELLSIPELQCLNIENDKLVETTMVPSPEAKLTEVDNYHFYSSIPSMEKEVGNCSPHFLNAFEDSFSSILSTEDPNQLTVNSLNSDATVNTDFGDEFYSAFIAEPSISNSMPSPATLSHSLSELLNGPIDVSDLSLCKAFNQNHPESTAEFNDSDSGISLNTSPSVASPEHSVESSSYGDTLLGLSDSEVEELDSAPGSVKQNGPKTPVHSSGDMVQPLSPSQGQSTHVHDAQCENTPEKELPVSPGHRKTPFTKDKHSSRLEAHLTRDELRAKALHIPFPVEKIINLPVVDFNEMMSKEQFNEAQLALIRDIRRRGKNKVAAQNCRKRKLENIVELEQDLDHLKDEKEKLLKEKGENDKSLHLLKKQLSTLYLEVFSMLRDEDGKPYSPSEYSLQQTRDGNVFLVPKSKKPDVKKN
A-counts [23]: 1440 A-counts
S/N [24]: 3.2
A-counts [25]: 1120 A-counts
S/N [26]: 2.2
A-counts [27]: 696 A-counts
